Source: patent US20240368238A1 (DRACOTERPIN BIOMEDICINE, published 2024)
Residue numbers refer to the chain shown, from its start. Each block holds one binder with its values, some of them ahead of it.

Experiments:
[1] = molecular target: T1, IL-2Rβ/γ receptor subunit complex on CTLL-2 cells (UniProt P16297 27-539; P34902 23-369); experiment: cell-based or functional assay
T1 sequence (looked up) 1: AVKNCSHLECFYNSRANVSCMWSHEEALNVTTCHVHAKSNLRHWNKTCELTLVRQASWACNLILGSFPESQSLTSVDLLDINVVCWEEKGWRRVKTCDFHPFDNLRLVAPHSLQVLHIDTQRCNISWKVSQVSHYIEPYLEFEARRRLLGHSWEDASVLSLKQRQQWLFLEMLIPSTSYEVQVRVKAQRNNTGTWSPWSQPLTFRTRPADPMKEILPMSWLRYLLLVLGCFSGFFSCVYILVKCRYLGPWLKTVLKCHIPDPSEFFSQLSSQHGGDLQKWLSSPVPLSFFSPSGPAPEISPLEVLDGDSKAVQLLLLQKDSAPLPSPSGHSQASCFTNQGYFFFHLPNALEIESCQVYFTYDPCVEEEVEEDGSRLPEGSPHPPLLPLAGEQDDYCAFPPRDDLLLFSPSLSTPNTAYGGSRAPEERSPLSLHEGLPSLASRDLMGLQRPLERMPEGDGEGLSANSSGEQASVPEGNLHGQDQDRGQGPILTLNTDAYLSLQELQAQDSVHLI
T1 sequence (looked up) 2: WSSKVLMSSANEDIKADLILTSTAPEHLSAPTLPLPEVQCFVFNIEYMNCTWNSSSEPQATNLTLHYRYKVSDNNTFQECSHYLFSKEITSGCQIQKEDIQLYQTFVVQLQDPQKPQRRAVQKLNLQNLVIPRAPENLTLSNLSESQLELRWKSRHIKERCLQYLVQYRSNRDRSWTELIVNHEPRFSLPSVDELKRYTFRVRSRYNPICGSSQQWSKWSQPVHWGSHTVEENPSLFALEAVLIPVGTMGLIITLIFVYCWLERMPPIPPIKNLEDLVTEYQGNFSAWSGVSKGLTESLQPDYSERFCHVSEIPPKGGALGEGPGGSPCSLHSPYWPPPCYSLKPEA

IL2-Rα-his [2] = molecular target: T2, IL2-Rα-his (UniProt P01589 22-240, limits assumed); experiment: Octet BLI per Example 2, IL-2Rα-his as analyte at the concentration on the x axis; y axis on the sheet reads OD490
T2 construct: used as the analyte in the BLI; also called IL-2 receptor α; CD25; not shown: his tag
T2 sequence (looked up): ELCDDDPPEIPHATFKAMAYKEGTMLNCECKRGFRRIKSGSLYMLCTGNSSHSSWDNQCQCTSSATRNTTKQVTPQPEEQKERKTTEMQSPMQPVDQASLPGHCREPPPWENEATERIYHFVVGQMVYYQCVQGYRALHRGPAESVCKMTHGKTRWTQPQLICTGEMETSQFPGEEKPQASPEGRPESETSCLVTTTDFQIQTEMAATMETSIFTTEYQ
Method: (§1) 2. The experiment was performed with reference to the experimental design below. The whole experiment was completed under the conditions of 30° C., 1000 rpm, 220 μl/well. The proteins used in the experiment were IL2-Rα-his and IL-2 variants or derivatives thereof obtained by transient expression in HEK293 and affinity purification.
(§2) Experimental data were processed using Data Analysis software 9.0. […] The method of global fitting was applied, i.e., the 6 concentrations were analyzed as a group.

[3] = molecular target: T3, IL-2Rβ/γ-Fc heterodimer (IL-2Rβ-Fc-hole + IL-2Rγ-Fc-knob) (UniProt P14784 27-240; P31785 23-262); experiment: BLI (Octet RED96e), AR2G sensors, IL-2Rβ/γ-Fc heterodimer as analyte, 1:1 global fit
T3 construct: Both chains transfected together into HEK293; purified with Protein A and Superdex 200; used as the analyte in the BLI; also called IL-2Rβ/γ heterodimers; not shown: Fc hole; Fc knob
T3 sequence (looked up) 1: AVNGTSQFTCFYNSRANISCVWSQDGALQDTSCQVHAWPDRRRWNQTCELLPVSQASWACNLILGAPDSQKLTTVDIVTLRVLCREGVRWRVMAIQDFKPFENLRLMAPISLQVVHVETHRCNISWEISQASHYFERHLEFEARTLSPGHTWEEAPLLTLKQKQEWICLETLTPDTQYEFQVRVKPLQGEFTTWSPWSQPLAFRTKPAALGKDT
T3 sequence (looked up) 2: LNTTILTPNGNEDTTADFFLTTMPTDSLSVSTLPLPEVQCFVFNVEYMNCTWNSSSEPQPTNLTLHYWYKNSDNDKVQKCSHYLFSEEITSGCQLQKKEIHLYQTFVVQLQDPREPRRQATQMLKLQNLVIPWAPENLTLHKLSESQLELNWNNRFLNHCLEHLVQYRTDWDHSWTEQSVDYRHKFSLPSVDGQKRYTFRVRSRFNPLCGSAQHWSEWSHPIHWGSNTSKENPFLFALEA
Method: as §2

[4] = molecular target: T3, IL-2Rβ/γ-Fc heterodimer (IL-2Rβ-Fc-hole …); experiment: Octet BLI per Example 3, IL-2Rβ/γ-Fc heterodimer as analyte at the concentration on the x axis; y axis on the sheet reads OD490
Method: as §2

IL2-Rα-his [5] = molecular target: T2, IL2-Rα-his; experiment: BLI (Octet RED96e), AR2G sensors, IL-2Rα-his as analyte, 1:1 global fit
Method: as §1, §2

Relative activity (CTLL-2 cell proliferation, CCK-8) [1]: 64% | EC50 (read off the curve) (IL2-Rα-his [2]): ~60 nM | Kd [3]: 4.87 nM | EC50 (read off the curve) [4]: ~100 nM | Kd (IL2-Rα-his [5]): 0.789 nM
B1: IL-2-2 (35-41 + 125) (ligand)
chain: APTSSSTKKTQLQLEHLLLDLQMILNGINNYKNPMHGLDGFKFYMPKKATELKHLQCLEEELKPLEEVLNLAQSKNFHLRPRDLISNINVIVLELKGSETTFMCEYADETATIVEFLNRWITFAQSIISTLT
notes: Human IL-2 variant; HEK293 expression, purified by the HPC4 tag; not shown: HPC4 tag at the C-terminus

Relative activity (CTLL-2 cell proliferation, CCK-8) [1]: 90% | EC50 (read off the curve) (IL2-Rα-his [2]): ~60 nM | Kd [3]: 5.24 nM | EC50 (read off the curve) [4]: ~100 nM | Kd (IL2-Rα-his [5]): 0.904 nM
B2: IL-2-5 (31-32 + 35-41 + 125) (ligand)
chain: B1 chain with Y31G, K32G
notes: as for B1

Relative activity (CTLL-2 cell proliferation, CCK-8) [1]: 100% | EC50 (read off the curve) (IL2-Rα-his [2]): ~60 nM | Kd [3]: 3.74 nM | EC50 (read off the curve) [4]: ~100 nM | Kd (IL2-Rα-his [5]): 0.656 nM
B3: IL-2-3 (31-32 + 125) (ligand)
chain: APTSSSTKKTQLQLEHLLLDLQMILNGINNGGNPKLTRMLTFKFYMPKKATELKHLQCLEEELKPLEEVLNLAQSKNFHLRPRDLISNINVIVLELKGSETTFMCEYADETATIVEFLNRWITFAQSIISTLT
notes: as for B1

Relative activity (CTLL-2 cell proliferation, CCK-8) [1]: 13% | binding result (IL2-Rα-his [2]): no binding (tested: 500 nM) | Kd [3]: 19.6 nM | EC50 (read off the curve) [4]: ~100 nM
B4: IL-2-6 (35-41 + 43-45 + 125) (ligand)
chain: APTSSSTKKTQLQLEHLLLDLQMILNGINNYKNPMHGLDGFGMPKKATELKHLQCLEEELKPLEEVLNLAQSKNFHLRPRDLISNINVIVLELKGSETTFMCEYADETATIVEFLNRWITFAQSIISTLT
notes: as for B1

Relative activity (CTLL-2 cell proliferation, CCK-8) [1]: 13% | binding result (IL2-Rα-his [2]): no binding (tested: 500 nM) | Kd [3]: 17.9 nM | EC50 (read off the curve) [4]: ~100 nM
B5: IL-2-1 (31-32 + 35-41 + 43-45 + 125) (ligand)
chain: B4 chain with Y31G, K32G
notes: as for B1

Relative activity (CTLL-2 cell proliferation, CCK-8) [1]: 8% | binding result (IL2-Rα-his [2]): no binding (tested: 500 nM) | Kd [3]: 27.2 nM | EC50 (read off the curve) [4]: ~100 nM
B6: IL-2-9 (35-41 + 43-45 + 125) (ligand)
chain: B4 chain with M35G, H36G, L38G, D39G
notes: as for B1

Relative activity (CTLL-2 cell proliferation, CCK-8) [1]: 8% | binding result (IL2-Rα-his [2]): no binding (tested: 1000 nM) | Kd [3]: 21.3 nM | EC50 (read off the curve) [4]: ~100 nM
B7: IL-2-8 (35-43 + 125) (ligand)
chain: B4 chain with H36G, D39G, G42Y
notes: as for B1

Relative activity (CTLL-2 cell proliferation, CCK-8) [1]: 100% | EC50 (read off the curve) (IL2-Rα-his [2]): ~60 nM | Kd [3]: 4.11 nM | EC50 (read off the curve) [4]: ~100 nM | Kd (IL2-Rα-his [5]): 0.799 nM
B8: IL-2-4 (43-45 + 125) (ligand)
chain: APTSSSTKKTQLQLEHLLLDLQMILNGINNYKNPKLTRMLTFGMPKKATELKHLQCLEEELKPLEEVLNLAQSKNFHLRPRDLISNINVIVLELKGSETTFMCEYADETATIVEFLNRWITFAQSIISTLT
notes: as for B1

Relative activity (CTLL-2 cell proliferation, CCK-8) [1]: 58% | EC50 (read off the curve) (IL2-Rα-his [2]): ~70 nM | Kd [3]: 6.48 nM | EC50 (read off the curve) [4]: ~100 nM | Kd (IL2-Rα-his [5]): 3.25 nM
B9: IL-2-7 (31-32 + 43-45 + 125) (ligand)
chain: B8 chain with Y31G, K32G
notes: as for B1
